The values that follow come from patent US5919901, “Neuropeptide Y receptor Y5 and nucleic acid sequences” (Bayer Corporation, dated 1999).

Ends that are not written are not given here.

For test [1], the target named is T1, rat NPY Y5 receptor, clone Y861 (rat).
T1 chain: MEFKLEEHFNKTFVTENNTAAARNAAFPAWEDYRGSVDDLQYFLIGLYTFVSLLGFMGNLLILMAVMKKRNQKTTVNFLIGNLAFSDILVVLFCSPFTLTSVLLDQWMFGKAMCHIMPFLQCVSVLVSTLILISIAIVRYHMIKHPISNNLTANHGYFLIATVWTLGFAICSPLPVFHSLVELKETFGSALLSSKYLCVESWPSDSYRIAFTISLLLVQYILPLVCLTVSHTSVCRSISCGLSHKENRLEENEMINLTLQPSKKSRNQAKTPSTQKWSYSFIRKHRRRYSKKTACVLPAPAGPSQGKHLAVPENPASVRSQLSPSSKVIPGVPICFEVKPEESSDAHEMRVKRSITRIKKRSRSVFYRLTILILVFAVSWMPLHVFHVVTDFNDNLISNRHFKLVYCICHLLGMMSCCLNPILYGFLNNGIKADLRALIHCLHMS
Briefly: competition with [125I]PYY, membranes of transfected COS-7 cells. From the text:
(§1) All other peptides were purchased from either Peninsula (Belmont, Calif.) or Bachem (Torrance, Calif.).

Test [2] has as its target T2, rat NPY Y5 receptor, clone Y217.24.13.6B (rat).
T2 chain: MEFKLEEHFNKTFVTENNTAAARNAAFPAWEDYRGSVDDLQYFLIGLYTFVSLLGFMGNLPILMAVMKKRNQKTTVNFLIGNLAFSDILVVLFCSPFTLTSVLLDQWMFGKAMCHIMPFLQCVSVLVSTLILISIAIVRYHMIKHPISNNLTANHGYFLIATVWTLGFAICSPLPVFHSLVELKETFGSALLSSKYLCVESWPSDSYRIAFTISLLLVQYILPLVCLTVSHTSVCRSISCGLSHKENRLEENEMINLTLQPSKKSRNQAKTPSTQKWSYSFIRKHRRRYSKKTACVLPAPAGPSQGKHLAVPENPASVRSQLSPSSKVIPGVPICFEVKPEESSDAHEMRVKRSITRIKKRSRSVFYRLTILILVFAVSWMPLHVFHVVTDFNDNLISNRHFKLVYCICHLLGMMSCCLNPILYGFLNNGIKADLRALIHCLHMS
Briefly: competition with [125I]PYY, membranes of transfected COS-7 cells; second individual value in brackets.
Description: as §1

Test [3] deals with T2, rat NPY Y5 receptor, clone Y217.24.13.6B. Description: competition with [125I]PYY, membranes of transfected COS-7 cells; first individual value in brackets.
Description: as §1

The target in test [4] is T3, rat NPY Y5 receptor, clone Y555 (rat).
T3 chain: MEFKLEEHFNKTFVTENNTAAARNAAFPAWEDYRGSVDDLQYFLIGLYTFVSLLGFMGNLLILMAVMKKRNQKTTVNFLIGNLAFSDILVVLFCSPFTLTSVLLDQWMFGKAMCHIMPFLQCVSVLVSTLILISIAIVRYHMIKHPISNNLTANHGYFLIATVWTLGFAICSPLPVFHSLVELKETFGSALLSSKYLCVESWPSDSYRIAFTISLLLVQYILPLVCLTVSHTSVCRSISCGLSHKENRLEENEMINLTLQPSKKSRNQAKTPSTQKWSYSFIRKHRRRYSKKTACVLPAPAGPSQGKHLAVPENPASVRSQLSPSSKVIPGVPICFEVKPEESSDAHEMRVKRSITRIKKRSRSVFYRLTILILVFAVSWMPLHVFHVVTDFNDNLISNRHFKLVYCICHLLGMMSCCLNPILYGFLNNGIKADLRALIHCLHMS
Briefly: competition with [125I]PYY, membranes of transfected COS-7 cells; second individual value in brackets.
Description: as §1

For test [5], the target named is T3, rat NPY Y5 receptor, clone Y555. Briefly: competition with [125I]PYY, membranes of transfected COS-7 cells; average of two experiments.
Description: as §1

Test [6] shares this target. Description: competition with [125I]PYY, membranes of transfected COS-7 cells; first individual value in brackets.
Description: as §1

Test [7] deals with T2, rat NPY Y5 receptor, clone Y217.24.13.6B. Description: competition with [125I]PYY, membranes of transfected COS-7 cells.
Description: as §1

One may read the IC50 as the concentration at which inhibition is half-maximal. High values mean weaker potency in that assay, low ones greater potency in that assay. For the molecule APLEPVYPGDNATPEQMAQYAADLRRYINMLTRPRY [hPP], in test [1], the IC50 turned out to be 4.9 nM. Turning to ARYYSALRHYINLITRQRY (ends and bridges not checked) [p(18-36)NPY], the IC50 in test [2] came to 107 nM; in test [3] it was 147 nM. Regarding SPEELSRYYASLRHYLNLVTRQRY [r(13-36)PYY], the IC50 in test [4] was found to be 54 nM; in test [5] it was 32 nM; in test [6], 9.6 nM; in test [7], 13.2 nM; in test [1], 73 nM. In turn, HYINLITRQRY (ends and bridges not checked) [r/h(26-36)NPY] had an IC50 in test [7] greater than 1000 nM.

Regarding YYSALRHYINLITRQRY (ends and bridges not checked) [r/h(20-36)NPY], the IC50 in test [2] was found to be 332 nM; in test [3], 387 nM. In turn, APLEPMYPGDYATHEQRAQYETQLRRYINTLTRPRY [rPP] had an IC50 in test [1] of 325 nM. SALRHYINLITRQRY (ends and bridges not checked) [r/h(22-36)NPY] registered an IC50 in test [7] greater than 1000 nM.
